55 molecules from paper PMC12416549 (2024) can be followed below.

This assay deals with T1, TNFR1 (Homo sapiens, UniProt P19438).
T1 chain: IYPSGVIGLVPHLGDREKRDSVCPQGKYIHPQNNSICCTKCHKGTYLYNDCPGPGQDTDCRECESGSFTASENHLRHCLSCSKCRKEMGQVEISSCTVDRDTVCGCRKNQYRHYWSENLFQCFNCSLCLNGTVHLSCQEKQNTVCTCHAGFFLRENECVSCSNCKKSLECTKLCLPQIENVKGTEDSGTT
Kind of assay: yeast display SC50.

Substitutions are numbered along the chain they refer to. Names and notes keep the numbering of the source.

B1: A42T (designed binder)
chain: MTLQELLREEALRRAEAEAFRYALELLAEKFPEQKEYLLDLTEEIESQIRSLSGVDVEDVRKFLDKEWAWVKELLAEHPAELAEVEAARAARLAELRAEVEAKVAA
Consider B1, for which the “apparent Kd (screen)” value is 1.05 nM.

B2: S51W (designed binder)
chain: B1 chain with T42A, S51W
On to B2, for which the “apparent Kd (screen)” value amounted to 0.446 nM.

B3: E77I (designed binder)
chain: B1 chain with T42A, E77I
In the case of B3, the “apparent Kd (screen)” value is 1.27 nM.

B4: E46R (designed binder)
chain: B1 chain with T42A, E46R
Turning to B4, the “apparent Kd (screen)” value came to 0.718 nM.

B5: E73F (designed binder)
chain: B1 chain with T42A, E73F
With B5, the “apparent Kd (screen)” value amounted to 0.653 nM.

B6: H78T (designed binder)
chain: B1 chain with T42A, H78T
For B6, the “apparent Kd (screen)” value worked out at 0.869 nM.

B7: E81M (designed binder)
chain: B1 chain with T42A, E81M
Turning to B7, the “apparent Kd (screen)” value was 0.593 nM.

B8: M1Y (designed binder)
chain: B1 chain with M1Y, T42A
For the molecule B8, the “apparent Kd (screen)” value stood at 0.593 nM.

B9: Q4W (designed binder)
chain: B1 chain with Q4W, T42A
Take B9: the “apparent Kd (screen)” value was determined as 0.539 nM.

B10: V100Y (designed binder)
chain: B1 chain with T42A, V100Y
As to B10, the “apparent Kd (screen)” value came out at 0.49 nM.

B11: L82P (designed binder)
chain: B1 chain with T42A, L82P
As to B11, the “apparent Kd (screen)” value was found to be 5.84 nM.

B12: E99A (designed binder)
chain: B1 chain with T42A, E99A
Regarding B12, the “apparent Kd (screen)” value was 1.27 nM.

B13: A98S (designed binder)
chain: B1 chain with T42A, A98S
For B13, the “apparent Kd (screen)” value was determined as 0.653 nM.

B14: K30N (designed binder)
chain: B1 chain with K30N, T42A
B14: the “apparent Kd (screen)” value came out at 0.539 nM.

B15: Y22F (designed binder)
chain: B1 chain with Y22F, T42A
Take B15: the “apparent Kd (screen)” value came out at 0.49 nM.

B16: L27A (designed binder)
chain: B1 chain with L27A, T42A
Consider B16, for which the “apparent Kd (screen)” value is 0.593 nM.

B17: Q48C (designed binder)
chain: B1 chain with T42A, Q48C
With B17, the “apparent Kd (screen)” value was found to be 0.956 nM.

B18: A87C (designed binder)
chain: B1 chain with T42A, A87C
In the case of B18, the “apparent Kd (screen)” value was 0.446 nM.

B19: D65R (designed binder)
chain: B1 chain with T42A, D65R
For B19, the “apparent Kd (screen)” value came to 0.718 nM.

B20: I49N (designed binder)
chain: B1 chain with T42A, I49N
For B20, the “apparent Kd (screen)” value was found to be 2.25 nM.

B21: L39W (designed binder)
chain: B1 chain with L39W, T42A
B21: the “apparent Kd (screen)” value was determined as 0.869 nM.

B22: F20D (designed binder)
chain: B1 chain with F20D, T42A
As to B22, the “apparent Kd (screen)” value came out at 11.4 nM.

B23: E5K (designed binder)
chain: B1 chain with E5K, T42A
As to B23, the “apparent Kd (screen)” value came out at 0.539 nM.

B24: Q4P (designed binder)
chain: B1 chain with Q4P, T42A
As to B24, the “apparent Kd (screen)” value came out at 3.3 nM.

B25: K72G (designed binder)
chain: B1 chain with T42A, K72G
Regarding B25, the “apparent Kd (screen)” value worked out at 0.653 nM.

B26: R97Q (designed binder)
chain: B1 chain with T42A, R97Q
As for B26, the “apparent Kd (screen)” value was determined as 0.653 nM.

B27: A80P (designed binder)
chain: B1 chain with T42A, A80P
For the molecule B27, the “apparent Kd (screen)” value turned out to be 0.446 nM.

B28: M1G (designed binder)
chain: B1 chain with M1G, T42A
Consider B28, for which the “apparent Kd (screen)” value turned out to be 0.49 nM.

B29: L26C (designed binder)
chain: B1 chain with L26C, T42A
In the case of B29, the “apparent Kd (screen)” value worked out at 0.49 nM.

B30: A42F (designed binder)
chain: B1 chain with T42F
As for B30, the “apparent Kd (screen)” value was determined as 3.3 nM.

B31: E16Q (designed binder)
chain: B1 chain with E16Q, T42A
Regarding B31, the “apparent Kd (screen)” value is 0.653 nM.

B32: S53A (designed binder)
chain: B1 chain with T42A, S53A
Regarding B32, the “apparent Kd (screen)” value turned out to be 0.956 nM.

B33: A88I (designed binder)
chain: B1 chain with T42A, A88I
As for B33, the “apparent Kd (screen)” value came out at 0.653 nM.

B34: A91Y (designed binder)
chain: B1 chain with T42A, A91Y
Take B34: the “apparent Kd (screen)” value turned out to be 0.653 nM.

B35: W70M (designed binder)
chain: B1 chain with T42A, W70M
With B35, the “apparent Kd (screen)” value was 13.8 nM.

B36: E10F (designed binder)
chain: B1 chain with E10F, T42A
With B36, the “apparent Kd (screen)” value was 1.27 nM.

B37: E33T (designed binder)
chain: B1 chain with E33T, T42A
On to B37, for which the “apparent Kd (screen)” value turned out to be 0.405 nM.

B38: S53F (designed binder)
chain: B1 chain with T42A, S53F
As to B38, the “apparent Kd (screen)” value was found to be 0.956 nM.

B39: E25C (designed binder)
chain: B1 chain with E25C, T42A
In the case of B39, the “apparent Kd (screen)” value is 0.49 nM.

B40: Q48V (designed binder)
chain: B1 chain with T42A, Q48V
For the molecule B40, the “apparent Kd (screen)” value worked out at 1.27 nM.

B41: L41A (designed binder)
chain: B1 chain with L41A, T42A
Turning to B41, the “apparent Kd (screen)” value was determined as 2.48 nM.

B42: K62I (designed binder)
chain: B1 chain with T42A, K62I
As to B42, the “apparent Kd (screen)” value worked out at 0.49 nM.

B43: A90H (designed binder)
chain: B1 chain with T42A, A90H
As for B43, the “apparent Kd (screen)” value is 0.869 nM.

B44: A83M (designed binder)
chain: B1 chain with T42A, A83M
For B44, the “apparent Kd (screen)” value stood at 0.593 nM.

B45: A76V (designed binder)
chain: B1 chain with T42A, A76V
Turning to B45, the “apparent Kd (screen)” value worked out at 0.539 nM.

B46: L27W (designed binder)
chain: B1 chain with L27W, T42A
For the molecule B46, the “apparent Kd (screen)” value worked out at 0.956 nM.

B47: Y37E (designed binder)
chain: B1 chain with Y37E, T42A
Consider B47, for which the “apparent Kd (screen)” value came out at 7.78 nM.

B48: E84C (designed binder)
chain: B1 chain with T42A, E84C
For the molecule B48, the “apparent Kd (screen)” value is 0.539 nM.

B49: L27F (designed binder)
chain: B1 chain with L27F, T42A
As to B49, the “apparent Kd (screen)” value amounted to 0.446 nM.

B50: E36W (designed binder)
chain: B1 chain with E36W, T42A
Take B50: the “apparent Kd (screen)” value is 0.539 nM.

B51: R21T (designed binder)
chain: B1 chain with R21T, T42A
In the case of B51, the “apparent Kd (screen)” value was determined as 0.956 nM.

B52: L7I (designed binder)
chain: B1 chain with L7I, T42A
Consider B52, for which the “apparent Kd (screen)” value turned out to be 2.25 nM.

B53: E43R (designed binder)
chain: B1 chain with T42A, E43R
Turning to B53, the “apparent Kd (screen)” value came out at 0.593 nM.

B54: L38V (designed binder)
chain: B1 chain with L38V, T42A
Regarding B54, the “apparent Kd (screen)” value was determined as 0.172 nM.

B55: L38I (designed binder)
chain: B1 chain with L38I, T42A
Turning to B55, the “apparent Kd (screen)” value was 0.405 nM.
